In the DeepSol protein solubility set:

Assay: soluble on expression in E. coli; label from the status in PepcDB or PDB records

Row | Sequence | soluble on expression in E. coli
1 | MSLRTYENVVILTDLTAGTTYYYKIVSTNSTVDHFLSPRVPGDETPFSINAVIDLGVYGEDGYTIKGDKSKKDTIPTINPALNHTTIGRLASTVDDYEFVIHPGDFAYADDWFLSLDNLLDGENAYQAILENFYEQLAPISGRKPYMASPGNHEAACQEIPFTTGLCPDGQKNFTDFMHRFGRTMPSSFTSVSTNDSAKVFANQARELAQPPFWYSFEYGMAHIVMINTETDFEDAPSGKGGSAHLNGGPFGAKNQQLEFLEADLASVDRDVTPWVIVAGHRPWYTAGSACTPCQEAFEDLLYTYGVDLGVFGHVHNAQRFLPVYNSVADPNGMQDPKAPMYIVAGGAGNIEGLSSITKQLDFTEFANDEDYTYSTIRFLDRNHLQVDFINSVSGEVLDTSTLYKSHEARFVREGHHHHHH | not soluble
2 | MSLSAHVEYFKPPAESELPDNAYGKLVREGYALFVDTKRLAPQFVGNGLNCSNCHLDQGRLANSAPLWGAYPMYPAYRKKNDKVNTFAERLQGCFQFSMNGGKPPAADSPQITALSVYAYWLASKAPLGVELPGRGYPDVAQPAKGYDLKQGAAVYQAQCAVCHGDNGQGQKAGADYVMPPLWGKDSYNWGAGMHRINTAASFIKHNMPLGKGGSLSDQQAWDVAAFVNSHERPQDPRLVEGSIEKTRVKFHANDGVNLYGQTVEGVLIGQGIREGHHHHHH | not soluble
3 | MSLSAPASEIAALILRGFDDYREQFREITDGARARFEQAQWQEAQRASAQRINLYEEKVAETVAGLRAGLADSELLDVERWPIIKSAYIAQIDLRLDDELAETWFNSIFCGLFSHDNISDGTMFVHTTRPSLRAHARAPYTRTYRPGGDLRQALEKIFDDYRFDVPYDDRERDLERIDALLHSNLPDWVCKDPDLAIELIGSVFYRNKGAYLVGRLFTPDEQWPLVFPLLHREDHGIQFDTVITDEAEVSIIFSFTRSYFMVDVPVPAELVAFLKRLLPGKHLAELYTSIGFYKQGKSEFYRALINHLATTDDRFVMAPGVRGMVMSVFTLPGFNTVFKIIKDRFNPSKSVDHATVIQKYQLVKNHDRVGRLADTQQFADFRFPVSKFEPECLAELLEVAPSTVVMEGDVVLIRHCWTERRMTPLNIYLENASEAQTREALNDYGLAIKQLAAANIFPGDMLLKNFGVTRHGRVVFYDYDEICYLTEVNFRYIPEPRFPEDEMSSEPWYSVGPNDVFPEEFPRFLFVDLNQRRLFAKLHGNLYDAKYWQGLQEQIREGKVIDVFPYRRQETPEQLLEGHHHHHH | soluble
4 | MSLSDNAQHLYVNGNVGSSTEEITSVEYSKLLQLKLIDESLSFQWCNNYTVLSIYSMKETFARKTIYIHFPKPLLNKWFTAVVYESSETTSNLCFDVILKDGIFINLSLPIDFILSRTRQNEYPENWLKVLNPYDFSVRPPQCLFHVDNTFSVVFLKDGGLLGLKRIPLEILNDFELQPVLFNDSSYFQSFTRMFSKYDNHNSAVVSAELLNDKYLVTLTNDATIKIWDLTTYQLNAHFDLKEKNQQVNYGAAGKYMIICGSLLFVYLPAGNGSFQVIQLENTHSSRISFKPLNVNIPLNLSSYSIWSLIDIQLVKSSIVKQSGLNLVLLWKSNTVTKLQLLSFEDSLYSSYKWIDGNSTYLSDLLDDSDLITNGNMEKALLNLKSHYSQSTYDDAQKILNKNNVMVQINDPHNQDYLNNLEALLKELHKQYQEPSTLTILDDEIIVVNSLHMYHHSTYKLDSQLETIFFNIFEREGHHHHHH | soluble
5 | MSLSELIDNRAQRVRTLKGIIKRLHAGDAPDEVRNSLKELVCQTDYSEVMAMEQELIADGMPVEEIQGMCDLHSQVTREVLVQLAPAPVPPGHPVDTFRRENKALRESAARLQKAMNGVLETADDGDASARLLEWRQALNELQDVDKHYQRKEHLLSTCLERHGITGPSKVMWGKDDQIRELLKDTSVALRQSDTSVAELKVLAATTGAAAAGAVHEMIYKEEQILLPICLERFTADEWAEIWASSPRYGWCLVEPRQGYKPFTSEAAGRASVDGGVSLPTGALALEQLIAIFSTLPVDLTFVDANDRVAFFSEGPSRVFARSRTIVGRMVQNCHPPRSVDVVERILSDFREGRQNVAEFWLQFVGRFVHIRYFAVRSEDGRYLGTLEVTQDVGPIRALEGERRLLEYAEPSEGHHHHHH | soluble
6 | MSLSFASSACFNEAGTMFRIEPNLIKAIALVESNLKKDSIGKNRDKKNNIKSFDYGLMQINQMHIPMLKKRGIIKDERDLLDNPCLNIKIGTEILYKHFSRCGMTWQCLGTYNAGFAMDNQKKRLQYAKKIYIVYTRLNELDNRKALAEGHHHHHH | soluble
7 | MSLSFFFQSATVSDGELTGADLKDCISNNSLSSNASLPSVQSCRRLRERRVASWAVSFERLLQDPVGVRYFSDFLRKEFSEENILFWQACECFSHVPAHDKKELSYRAREIFSKFLCSKATTPVNIDSQAQLADDILNAPHPDMFKEQQLQIFNLMKFDSYTRFLKSQLYQECVLAEVEGRTLPDSQQVPSSPASKHSISSDHSNVSTPKKLSGKSKSGRSLNEDVGEEDSEKKRRGAFFSWSRSRSTGRSQKKKDHGDHAHDAPHANGGLCRRESQGSVSSAGSLDLSEACRTSALEKDKAAKHCCVHLPDGTSCVVAVKSGFSIKEILSGLCERHGINGAAVDLFLVGGDKPLVLHQDSSILATRDLRLEKRTLFRLDLVPINRSVGLKAKPTKPVTEVLRPVVAKYGLDLGSLLVRLSGEKEPLDLGAPISSLDGQRVILEERDPSRGKVSTDKQKGAPVKQNSAVNSSPRNHLAMGEERTLGKSNSIKIRGENGKSARDPRLSKREESIAKIGKKEYQKINLDEAEEFFELISKAQSNRADDQRGLLRKEDLVLPEFLRLPAGSSELALSSPPPVKGYSKRAVTGHGQEGAAQTEESYSDSPATSPASAQSPCSAYSPGSAHSPGSAHSTPGPPGTTQPGEKPTKPSCVSMVQEGTTQAWRRLSPGMEAGGIQTVEDEQVADLTLMGEGDISSPNSTLLPPPPTPQDTPGPPRPGTSRF | soluble
8 | MSLSFNADEVRFLIDNLPDIDAATGDLALTKKTMISDVAALRARFGEHGRAVAELAGARRSVAGKLPVDWLMCHDSAQQATPMQVSGVRARRLVTALGEGTTAVDVTCSIGTEGHAVGQVGMGYIGSDLDQARLLMARYNLGGGVDKHPPHLLRADALAPAVTGADVIIADPARRAGGRRITDPAQLLPPLPDLLTAWEGHAMAVKCAPGLDFSGWTGLVSLVSVDGGVKEACLYTPDLADGETREAVILRGDRMDRITDALDDAPGEQLAREPGEFIIDPDGAVVRAGLVRHYAVREGLWMLDERIAYLTGDRIPAGTSGFRFIEQVPLKKLKGALTAHGAGSVEILVRGVDVDPDQLRKKLGLKGDRAMSVVITRIGSAGVALVCGAREWNGEGHHHHHH | soluble
9 | MSLSFSTLMDKRERGSFDSQFLIAMPGLDDGNFARSVIYICAHSDAGAMGFIINRPQQITFTDILLHLKLVDSNDAIMLPNRTREFPIQCGGPVESGRGFVLHSDDYLSESSIPVSDDISLTATLDIVRAISNGRGPQKATMMLGYAGWGPGQLENEIANNGWLNCPAAEELIFDRGLDNKYERALALMGVDARMLSTDAGHAEGHHHHHH | not soluble
10 | MSLSGAVFKTFLTSEHASWNRFNRRLHIPNEDIVDEIQLKARMQQRHHRVYPEIGDSTIVSFRGKDYAVHFIKDGPKDDYVYKVQRITPENGCFSTLFSVFSGGVTKALERKLNERHITPLSSTWFPRTPLEGILAERGLSSLLRRVQSTERLDNRAIATRASSYSVL | not soluble
11 | MSLSGETLYQQLVNEWMELIRNGTVRPGERLPSVRKACAMHKVSPSTILQTYRMLEDRGLIEARPQSGFYVKSAASLPLPRMRRQSAAHHTGEVVDQIEAVMGVQSQADFIDLALASPRGSDFYPTTRFKHIMGRLLRQHPELTTDYPFPPGSERLRRQIAQRAVNWGCVLAADELVISNGCTEALQLALRAVCKPGDTVGVESPTYFALLPMLKDLGLAVIEIPTHPTSGLALDALELLLSEKRLNAVVAMPTVHNPLGSTMPPEAKRRLAQLVNDYQVPLIEDVPHAELFYGASTPDAVKAYDRDGWVLLCSSYSKTLAPGFRIGWIAPGRFLSEVRRLKFSSSLGQPALLEETLAEYLESGGYDHHLRLLRRHFISQMEKLRGAVAQHFPDGTRATLPSGGCLLWVELPSHADTMQLFRAALAERITVVPGAMYSAKGRYRNCLRLSCCYPWNEAYQRALIRVGELAGELAEGHEGHHHHHH | soluble
12 | MSLSIALIAPYESLATLCRSICQELDLDVSVHTGSMEDGVRIARNLMAEGVDFFISRGLTAQLIREQCPLPVAELEVSAFDIYLCLEPLLRSGKSIGVVGHSDILRKAKGASAALGFTIDFYATAHPGGMGHIMEAARRQGIAAIAGDAVAARTAERYGMEGVLVQNGADSVTNTLQYAVATYSYLTRQATMAGEGHHHHHH | not soluble
13 | MSLSIKLIAVDMDGTFLSDQKTYNRERFMAQYQQMKAQGIRFVVASGNQYYQLISFFPEIANEIAFVAENGGWVVSEGKDVFNGELSKDAFATVVEHLLTRPEVEIIACGKNSAYTLKKYDDAMKTVAEMYYHRLEYVDNFDNLEDIFFKFGLNLSDELIPQVQKALHEAIGDIMVPVHTGNGSIDLIIPGVHKANGLRQLQKLWGIDDSEVVVFGDGGNDIEMLRQAGFSFAMENAGSAVVAAAKYRAGSNNREGVLDVIDKVLKHEAPFKEGHHHHHH | soluble
14 | MSLSIWGLVNEEDAEIDEDDLSKQEDGGEQPLRKVRTLAQSKPSDKEVILKTDGTFGTLSGKDDSIVEEKAYEPDLSDADFEGIEASPKLDVSKDWVEQLILAGSSLRSVFATSKEFDGPCQNEIDLLFSECNDEIDNAKLIMKERRFTASYTFAKFSTGSMLLTKDIVGKSGVSIKRLPTELQRKFLFDDVYLDKEIEKVTIEARKSNPYPQISESSLLFKDALDYMEKTSSDYNLWKLSSILFDPVSYPYKTDNDQVKMALLKKERHCRLTSWIVSQIGPEIEEKIRNSSNEIEQIFLYLLLNDVVRASKLAIESKNGHLSVLISYLGSNDPRIRDLAELQLQKWSTGGCSIDKNISKIYKLLSGSPFEGLFSLKELESEFSWLCLLNLTLCYGQIDEYSLESLVQSHLDKFSLPYDDPIGVIFQLYAANENTEKLYKEVRQRTNALDVQFCWYLIQTLRFNGTRVFSKETSDEATFAFAAQLEFAQLHGHSLFVSCFLNDDKAAEDTIKRLVMREITLLRASTNDHILNRLKIPSQLIFNAQALKDRYEGNYLEGHHHHHH | not soluble
15 | MSLSKNRNIIEGRILSFDKSPFSKDFDLSSLKIDKKRIFIIDGIIESIEPVNFINPEFQDIEIIDYGDHLISAGFVDAHVHYPQTAIVASWGKRLIDWLNTYTFPEEMRFSNLNYASEIAARYIDFSLSNGTTTMASYCTIHPESVDAFFKSAAVKNMCVVGGKTCMDRNAPGDLCDSAKSAYDDSKALLQKWHHKGRAHYAITPRFSPTSTPDQLLALGSLWSEFPGCLMQTHLSEQVDEIDWVRKLFPNARDYLDTYETFGLLGERGVYGHAIHLEAREIDRLSEVGASLIHCPTSNTFIGSGLFNMEDLTSRSLKVGLASDIGGGSSFSMLRTMAGAYEVAQLRGLALHPSQLMWLATQGSAKALHLDNQIGNIAPGMAADLVVLDLSSTPTISQRSARANDVWEELFPTIMMGDDRAIAATYVAGKKIEGHHHHHH | soluble
16 | MSLSKSLQKPTILNVETVARSRLFTVESVDLEFSNGVRRVYERMRPTNREAVMIVPIVDDHLILIREYAVGTESYELGFSKGLIDPGESVYEAANRELKEEVGFGANDLTFLKKLSMAPSYFSSKMNIVVAQDLYPESLEGDEPEPLPQVRWPLAHMMDLLEDPDFNEARNVSALFLVREWLKGQGRVEGGSHHHHHH | soluble
